Tests used:
[1] = target: wild-type yeast ScNep1 with an N-terminal hexahistidine tag (S. cerevisiae) (UniProt Q06287); assay: SEC
[2] = target: yeast ScNep1^D90G (Bowen-Conradi syndrome mutation) with an N-terminal hexahistidine tag (S. cerevisiae) (UniProt Q06287); assay: SEC

Substance: wild-type yeast ScNep1 with an N-terminal hexahistidine tag (from UniProt Q06287 1-252) (enzyme)
- Kd [1]: 134 µM

Substance: yeast ScNep1^D90G (Bowen-Conradi syndrome mutation) with an N-terminal hexahistidine tag (from UniProt Q06287 1-252) (enzyme)
- Kd [2]: 5.8 µM
- stoichiometry N [2]: 2
